Here are results for two compounds from patent US12337037B2, “Taxol conjugate compounds, pharmaceutical compositions comprising the same, and methods for their use” (N1 Life, Inc, priority 2021, dated 2025).

Each structure is given as a SMILES string.

Data set [1] is described as follows: In-life pharmacokinetics, single IP dose. To be noted: CD-1 mice. The procedure: General Procedure: A single-dose study was conducted in CD-1 mice. Groups (12 animals in each group) were administered an intraperitoneal (IP) dose of either Taxol (10 mg/kg), Compound 3 (38.4 mg/kg), or Compound 5 (38.4 mg/kg). Serial or terminal plasma samples (n=3 per timepoint) were collected from study animals at pre-determined times post-dose. Each mouse was serial bled 2 times (orbital bleeds) and one terminal bleed. The samples were collected in pre-chilled tubes for all steps. Upon completion of the in-life phase, the samples were analyzed using LC-MS/MS.
Assay Procedures: For analysis of analytes in mouse plasma, a 50.0 μL aliquot of each study sample was extracted with protein precipitation using 200 μl of 5% formic acid in methanol. Internal standards were added by adding 25.0 μL methanol containing 250 ng/mL tolbutamide and 1000 ng/mL Taxol-d5.
For Compound 5 and Compound 3 analysis, following centrifugation at 4000 rpm for 10 minutes, 150 μL of the supernatant was transferred to a clean 96 well collection plate for LC-MS/MS analysis.
For Taxol analysis, following centrifugation at 4000 rpm for 10 minutes, 75.0 μL of the supernatant was transferred into a clean 96 well collection plate containing 75.0 μL of deionized water. The plate was then capped and vortexed at 1650 rpm for 3 minutes prior to LC-MS/MS analysis.
Preparation of Standards and Quality Controls: Calibration standards of Compound 3 in mouse plasma were prepared on wet ice in blank mouse plasma at concentrations of 5.00, 10.0, 50.0, 100, 200, 250, 450, and 500 ng/mL. The low quality control ([LQC], 15.0 ng/mL), medium quality control ([MQC], 120 ng/mL) and high quality control ([HQC], 400 ng/mL) were prepared in blank mouse plasma.
Calibration standards of Taxol in mouse plasma were prepared on wet ice in blank mouse plasma at concentrations of 2.50, 5.00, 25.0, 125, 625, 1250, 2250, and 2500 ng/mL. The LQC, (7.50 ng/mL), MQC (120 ng/mL), and HQC (2000 ng/mL) were prepared in blank mouse plasma.
Sample Analyses: Mouse plasma samples were received from the in-life and were stored in a freezer set to −80° C.
Study samples were analyzed in 2 batches. At a minimum, each batch included the following: one set of calibration standards, a matrix blank (blank mouse plasma), a control-zero sample (blank mouse plasma with internal standard), and duplicate QC samples at 3 concentration levels (low, medium, and high) in addition to the study samples. Within each batch, the study samples were bracketed by calibration standards or QC samples.
Data Acquisition and Processing: The LC-MS/MS data acquisition was performed on an Agilent 1290 Infinity II HPLC system coupled with an AB SCIEX API 6500+ mass spectrometer. Chromatograms were integrated using Analyst 1.6.3 software. A weighted (1/x2, x=concentration) linear regression was used to generate the calibration curves and the regression was performed using Analyst 1.6.3 software. The concentration of the analyte in the samples was calculated using the peak area ratios of analyte to internal standard based on the calibration curve.

In data set [2] the test system is breast cancer MCF7/MBA-MD-231 cells. As to the kind of experiment: CCK-8 cytotoxicity / anti-proliferation assay, MCF7/MBA-MD-231. The note with it: all tested concentrations (500-4000 nM). Type of data set: cell-based. The procedure: (§1) Cytotoxicity Assay—CCK8 Cancer Cells
(§2) The CCK-8 assay was applied to study the cytotoxicity of the peptide drug conjugates and their inhibition of proliferation of cancer cells. First, 2˜10×10^3 cells (depending on the rate of growth of different cell lines) with 100 μL, DMEM media were seeded in normal culture medium into each well of a 96-well plate. The cells were then cultured overnight at 37° C. with 4˜5% CO2. Different doses (4000, 2000, 1000, 500 nM for Hep3B, Hep G2 and MCF7/MBA-MD-231; 1000, 333.3, 100.0, 33.33, 3.333, 1.000, 0.333 nM for MCF7/ADR, 22Rv1, CNE1, HCT116, DLD-1) of Taxol and peptide drugs were added. After 48˜72 hour incubation, CCK-8 solution was added to each well. The cells were then incubated at 37° C. for 4 hours. The optical density was measured at 450/650 nm using a multiscan spectrometer (PerkinElmer's EnSpire Multilabel Plate Reader). The optical density is linearly proportional to the number of living cells in the sample: […]

For data set [3], the system named is human pancreatic cancer (BXPC-3) cells. Nature of the data set: Efficacy against pancreatic cancer. Type of data set: in vivo, mice. The note with it: BXPC-3 model; 9.6 mg/kg QD5 (days 0, 5, 10); vs vehicle. The procedure: Following the procedure described in Biological Example 5, mice were injected with human pancreatic cancer (BXPC-3) cells and treated with Compound 3 (9.6 mg/kg) QD5 (dosing on days 0, 5, and 10) to study the efficacy of Compound 3. […] FIG. 11 is a graph comparing the fluorescence area on Day 17 of the study of the mice administered vehicle and the mice administered Compound 3. FIG. 12 is a graph comparing the tumor weight of the mice administered vehicle and the mice administered Compound 3 on Day 17.

For data set [4], the system named is human gastric cancer (NUGC-4) cells. As to the kind of experiment: Efficacy against gastric cancer. Type of data set: in vivo, mice. To be noted: NUGC-4 model; 9.6 mg/kg QD5 (days 0, 5, 10). The procedure: The fluorescence area of the tumor was measured over the course of the study (FIG. 13). After approximately Day 15 in the mice administered PBS, the formation of bloody ascites blocked the fluorescence reading. […] FIG. 14 is a graph comparing the fluorescence area on Day 21 of the study of the mice administered vehicle and the mice administered Compound 3. FIG. 15 is a graph comparing the tumor weight of the mice administered vehicle and the mice administered Compound 3 on Day 21.

Data set [5] has as its system Hep G2 cells. As to the kind of experiment: CCK-8 cytotoxicity / anti-proliferation assay, Hep G2. The note with it: 2000 nM. The data set is classed as cell-based. How it is done:
as §1, §2

Where [6] appears, read: analyte: Taxol, IP single dose, Cmpd 3 / Cmpd 5 38.4 mg/kg, Taxol 10 mg/kg.
The mark [7] stands for this setting: analyte: the administered conjugate, 38.4 mg/kg IP single dose.

Regarding `CC(=O)N[C@H](CSSCCCC(=O)O[C@@H](C(=O)O[C@H]1C[C@@]2(O)[C@@H](OC(=O)c3ccccc3)[C@@H]3[C@]4(OC(C)=O)CO[C@@H]4C[C@H](O)[C@@]3(C)C(=O)[C@H](OC(C)=O)C(=C1C)C2(C)C)[C@@H](NC(=O)c1ccccc1)c1ccccc1)C(=O)N[C@H](CCCNC(=N)N)C(=O)N[C@H](CCCNC(=N)N)C(=O)N[C@H](CCCNC(=N)N)C(=O)N[C@H](CCCNC(=N)N)C(=O)N[C@H](CCCNC(=N)N)C(=O)N[C@H](CCCNC(=N)N)C(=O)N[C@H](CCCNC(=N)N)C(=O)N[C@H](CCCNC(=N)N)C(N)=O` [Compound 5, Ac-D-Cysteine (paclitaxel-4-mercaptobutanoate)-D-Arginine8-NH2], the “Taxol/Cmpd AUC Ratio” value in data set [1] (38.4 mg/kg IP single dose) turned out to be 3.942. For the same compound, the “Cmax of parent compound, fold higher than that of Compound 3” value in data set [1] (38.4 mg/kg IP) is on record as “over 100 fold”. For the same compound, the “AUMC0-t (h*h*nmol/L)” value in data set [1] (setting [6]) amounted to 3274.99 h*h*nmol/L; in data set [1] (setting [7]), 830.67 h*h*nmol/L.

Take `CC(=O)N[C@@H](CSSCCCC(=O)OC(C(=O)O[C@H]1C[C@@]2(O)[C@@H](OC(=O)c3ccccc3)[C@@H]3[C@]4(OC(C)=O)CO[C@@H]4C[C@H](O)[C@@]3(C)C(=O)[C@H](OC(C)=O)C(=C1C)C2(C)C)[C@@H](NC(=O)c1ccccc1)c1ccccc1)C(=O)N[C@H](CCCNC(=N)N)C(=O)N[C@H](CCCNC(=N)N)C(=O)N[C@H](CCCNC(=N)N)C(=O)N[C@H](CCCNC(=N)N)C(=O)N[C@H](CCCNC(=N)N)C(=O)N[C@H](CCCNC(=N)N)C(=O)N[C@H](CCCNC(=N)N)C(=O)N[C@H](CCCNC(=N)N)C(N)=O` (stereo partly drawn) [Compound 3, Ac-L-Cysteine (paclitaxel-4-mercaptobutanoate)-D-Arginine8-NH2]: in data set [2], the “cancer cell inhibition compared to Compound 5 (FIG. 1)” value is recorded as “substantially superior to cancer cell inhibition compared to Compound 5 at all tested concentrations”. For the same compound, the “Taxol/Cmpd AUC Ratio” value in data set [1] (38.4 mg/kg IP single dose) turned out to be 81.84. Moreover, the “AUC ratio Taxol/compound, times higher than AUC ratio of Taxol/Compound 5” value in data set [1] (38.4 mg/kg IP) is 20 times. Besides, the “T1/2 of released Taxol, longer than that of Taxol released from Compound 5” value in data set [1] (38.4 mg/kg IP) stood at 33.3%. The entries for the “AUMC0-t (h*h*nmol/L)” value in data set [1] (setting [6]) and in data set [1] (setting [7]) were 72,372.302 h*h*nmol/L and 26.304 h*h*nmol/L, respectively. Also, the “fluorescence area of the tumor over the course of the study (FIG. 10)” value in data set [3] is recorded as “fluorescence area increased in the vehicle-administered mice to a greater degree over the course of the study compared to the Compound 3-administered mice”. The “fluorescence area of the tumor over the course of the study (FIG. 13)” value in data set [4] was “fluorescence decreased over the course of the study”. For the same compound, in data set [5], the “anti-proliferation effect compared to Taxol and Compound 5 (FIG. 2B)” value is “greater than the anti-proliferation effect of Taxol and Compound 5”.
